Measurements taken from the Immune Epitope Database (IEDB).

Legend:
HLA-B*27:05 [1] = test: IEDB peptide-MHC binding, purified MHC/competitive/fluorescence; ≥ and ≤ were set here for values at or beyond the usual limits of such assays; details: source organism: hepatitis C virus genotype 1a
HLA-B*46:01 [2] = test: IEDB peptide-MHC binding, cellular MHC/competitive/fluorescence; ≥ and ≤ were set here for values at or beyond the usual limits of such assays; details: source organism: Human herpesvirus 4 strain B95-8
HLA-A*29:02 [3] = test: IEDB peptide-MHC binding, purified MHC/competitive/radioactivity; ≥ and ≤ were set here for values at or beyond the usual limits of such assays; details: source organism: Human papillomavirus 16
HLA-B*35:01 [4] = test: IEDB peptide-MHC binding, cellular MHC/competitive/fluorescence; ≥ and ≤ were set here for values at or beyond the usual limits of such assays; details: source organism: Mycobacterium tuberculosis H37Rv
HLA-B*15:02 [5] = test: IEDB peptide-MHC binding, purified MHC/competitive/fluorescence; filed as Kd, often an IC50 or EC50 that approximates it; ≥ and ≤ were set here for values at or beyond the usual limits of such assays
HLA-B*27:20 = test: as above; details: source organism: Burkholderia pseudomallei 406e
HLA-C*06:02 = test: as above; details: source organism: Burkholderia pseudomallei 406e
HLA-B*15:42 = test: as above; details: source organism: Burkholderia pseudomallei 406e
HLA-A*32:15 = test: as above; details: source organism: Burkholderia pseudomallei 406e
HLA-A*29:02 [6] = test: as above; details: source organism: Burkholderia pseudomallei 406e
HLA-B*83:01 = test: as above; details: source organism: Burkholderia pseudomallei 406e
HLA-B*45:06 = test: as above; details: source organism: Burkholderia pseudomallei 406e
HLA-B*40:13 = test: as above; details: source organism: Burkholderia pseudomallei 406e
HLA-A*68:23 = test: as above; details: source organism: Burkholderia pseudomallei 406e
HLA-C*15:02 = test: IEDB peptide-MHC binding, purified MHC/direct/fluorescence; filed as Kd, often an IC50 or EC50 that approximates it; ≥ and ≤ were set here for values at or beyond the usual limits of such assays; details: source organism: Burkholderia pseudomallei 406e
HLA-C*07:02 = test: as above; details: source organism: Burkholderia pseudomallei 406e
HLA-C*14:02 = test: as above; details: source organism: Burkholderia pseudomallei 406e
HLA-B*40:01 = test: as above; details: source organism: Pasteurella multocida
HLA-A*69:01 = test: as above
HLA-B*27:05 [7] = test: as above
HLA-A*02:01 = test: as above
HLA-A*01:01 = test: as above
HLA-A*31:01 = test: as above
HLA-A*26:01 [8] = test: as above; details: source organism: Pasteurella multocida
HLA-B*35:01 [9] = test: as above
HLA-B*08:01 = test: as above; details: source organism: Pasteurella multocida
HLA-B*07:02 = test: as above
HLA-A*03:01 = test: as above; details: source organism: Pasteurella multocida
HLA-A*11:01 [10] = test: as above
HLA-B*15:01 = test: as above
HLA-B*58:01 = test: as above
HLA-B*27:04 = test: IEDB peptide-MHC binding, cellular MHC/competitive/fluorescence; ≥ and ≤ were set here for values at or beyond the usual limits of such assays; details: source organism: Human herpesvirus 4 strain B95-8
HLA-A*26:01 [11] = test: IEDB peptide-MHC binding, purified MHC/competitive/fluorescence; filed as Kd, often an IC50 or EC50 that approximates it; ≥ and ≤ were set here for values at or beyond the usual limits of such assays; details: source organism: Yersinia pestis KIM10+
HLA-A*11:01 [12] = test: as above; details: source organism: Yersinia pestis KIM10+
HLA-B*48:01 = test: IEDB peptide-MHC binding, purified MHC/direct/fluorescence; filed as Kd, often an IC50 or EC50 that approximates it; ≥ and ≤ were set here for values at or beyond the usual limits of such assays
HLA-B*46:01 [13] = test: as above
HLA-B*39:01 = test: as above; details: source organism: Yersinia pestis KIM10+
HLA-B*15:09 = test: as above; details: source organism: Yersinia pestis KIM10+
HLA-B*08:02 = test: as above
HLA-B*15:02 [14] = test: as above
HLA-A*24:02 = test: IEDB peptide-MHC binding, cellular MHC/competitive/fluorescence; ≥ and ≤ were set here for values at or beyond the usual limits of such assays; details: source organism: Human herpesvirus 5 strain AD169
HLA-B*73:01 = test: IEDB peptide-MHC binding, purified MHC/competitive/fluorescence; filed as Kd, often an IC50 or EC50 that approximates it; ≥ and ≤ were set here for values at or beyond the usual limits of such assays; details: source organism: Yersinia enterocolitica subsp. enterocolitica 8081
HLA-B*15:17 = test: as above; details: source organism: Vaccinia virus WR
HLA-A*26:02 = test: as above; details: source organism: Vaccinia virus WR
HLA-A*26:03 = test: IEDB peptide-MHC binding, purified MHC/direct/fluorescence; filed as Kd, often an IC50 or EC50 that approximates it; ≥ and ≤ were set here for values at or beyond the usual limits of such assays; details: source organism: Variola virus
HLA-B*57:01 = test: as above; details: source organism: Camelpox virus M-96
HLA-A*68:02 = test: as above; details: source organism: Camelpox virus M-96
HLA-B*15:03 = test: IEDB peptide-MHC binding, purified MHC/competitive/radioactivity; filed as Kd, often an IC50 or EC50 that approximates it; ≥ and ≤ were set here for values at or beyond the usual limits of such assays; details: source organism: Vaccinia virus WR
[15] = source organism: Pasteurella multocida
[16] = source organism: Yersinia pestis
[17] = source organism: Yersinia pestis KIM10+
[18] = source organism: Camelpox virus M-96

Sequence: GKAVICGKY
- IC50 (HLA-B*27:05 [1]): 4.67 µM

Sequence: HAMHISTGL
- IC50 (HLA-B*46:01 [2]): 5 µM

Sequence: IFVYIPLFL
- IC50 (HLA-A*29:02 [3]): 0.444 µM

Sequence: MPVGGQSSFY
- IC50 (HLA-B*35:01 [4]): 0.3 µM

Sequence: MQLPQGGAF
- Kd (HLA-B*15:02 [5]; source organism: Burkholderia pseudomallei K96243): 0.0235 µM

Sequence: MSWGWRLPF
- Kd (HLA-B*27:20): 0.0497 µM
- Kd (HLA-C*06:02): 0.387 µM
- Kd (HLA-B*15:42): ≥ 5 µM
- Kd (HLA-A*32:15): 0.005 µM
- Kd (HLA-A*29:02 [6]): 0.0161 µM
- Kd (HLA-B*83:01): 5.92 µM
- Kd (HLA-B*45:06): ≥ 5 µM
- Kd (HLA-B*40:13): 0.223 µM
- Kd (HLA-A*68:23): 0.0802 µM
- Kd (HLA-C*15:02): 1.72 µM
- Kd (HLA-C*07:02): 0.248 µM
- Kd (HLA-C*14:02): 0.286 µM

Sequence: SQLEMCEKY
- Kd (HLA-B*15:02 [5]; source organism: Pasteurella multocida subsp. multocida str. Pm70): 0.0744 µM
- Kd (HLA-B*40:01): ≥ 20 µM
- Kd (HLA-A*69:01; [15]): ≥ 20 µM
- Kd (HLA-B*27:05 [7]; [15]): ≥ 20 µM
- Kd (HLA-A*02:01; [15]): ≥ 20 µM
- Kd (HLA-A*01:01; [15]): ≥ 20 µM
- Kd (HLA-A*31:01; [15]): ≥ 20 µM
- Kd (HLA-A*26:01 [8]): ≥ 20 µM
- Kd (HLA-B*35:01 [9]; [15]): 0.121 µM
- Kd (HLA-B*08:01): ≥ 20 µM
- Kd (HLA-B*07:02; [15]): ≥ 20 µM
- Kd (HLA-A*03:01): ≥ 20 µM
- Kd (HLA-A*11:01 [10]; [15]): ≥ 20 µM
- Kd (HLA-B*15:01; [15]): 0.299 µM
- Kd (HLA-B*58:01; [15]): ≥ 20 µM

Sequence: SRRTSRPNR
- IC50 (HLA-B*27:04): 10 µM

Sequence: STFAASGPF
- Kd (HLA-A*26:01 [11]): 0.0192 µM
- Kd (HLA-A*11:01 [12]): ≥ 20 µM
- Kd (HLA-B*48:01; [16]): ≥ 20 µM
- Kd (HLA-B*46:01 [13]; [16]): 6.19 µM
- Kd (HLA-B*27:05 [7]; [16]): ≥ 20 µM
- Kd (HLA-A*02:01; [16]): ≥ 20 µM
- Kd (HLA-A*01:01; [16]): ≥ 20 µM
- Kd (HLA-B*39:01): ≥ 20 µM
- Kd (HLA-A*31:01; [16]): ≥ 20 µM
- Kd (HLA-B*15:09): ≥ 20 µM
- Kd (HLA-B*35:01 [9]; [17]): 0.045 µM
- Kd (HLA-B*07:02; [16]): ≥ 20 µM
- Kd (HLA-B*15:01; [16]): 0.007 µM
- Kd (HLA-B*08:02; [17]): ≥ 20 µM
- Kd (HLA-B*58:01; [16]): ≥ 20 µM
- Kd (HLA-B*15:02 [14]; [17]): 0.009 µM

Sequence: VFPTKDVAL
- IC50 (HLA-A*24:02): ≥ 333 µM

Sequence: WDYLVRHDA
- Kd (HLA-B*73:01): 4.5 µM

Sequence: YQYIFLSFF
- Kd (HLA-B*15:17): ≥ 20 µM
- Kd (HLA-A*26:02): ≥ 20 µM
- Kd (HLA-A*26:03): ≥ 20 µM
- Kd (HLA-B*48:01; [18]): ≥ 20 µM
- Kd (HLA-A*69:01; [18]): ≥ 20 µM
- Kd (HLA-B*46:01 [13]; [18]): ≥ 20 µM
- Kd (HLA-B*27:05 [7]; [18]): ≥ 20 µM
- Kd (HLA-A*02:01; [18]): ≥ 20 µM
- Kd (HLA-A*01:01; [18]): ≥ 20 µM
- Kd (HLA-A*31:01; [18]): ≥ 20 µM
- Kd (HLA-B*07:02; [18]): ≥ 20 µM
- Kd (HLA-B*57:01): ≥ 20 µM
- Kd (HLA-A*11:01 [10]; [18]): ≥ 20 µM
- Kd (HLA-B*15:01; [18]): 3.06 µM
- Kd (HLA-B*08:02; source organism: Variola virus): ≥ 20 µM
- Kd (HLA-B*58:01; [18]): ≥ 20 µM
- Kd (HLA-B*15:02 [14]; source organism: Variola virus): 1.94 µM
- Kd (HLA-A*68:02): ≥ 20 µM
- Kd (HLA-B*15:03): 0.000944 µM
